Laboratory results reported in PMC9309721.
Blank lines part the entries; values can stand above or below the molecule they belong to.

How the values were obtained:
TFIIB = TFIIB (UniProt Q00403); experiment: FLAG co-immunoprecipitation, TFIIB immunoblot; settings: reference: FLAG-WT-HSF1
[1] = target: T1, FLAG-tagged WT-HSF1 (human), Q00613; experiment: cross-linking + SEC; HEK-293 cells co-expressing AKT1 and WT- or T142A-HSF1, fixed with EGS; RIPA lysate on Superdex 200 Increase 10/300 GL in 50 mM Tris pH 8.0, 150 mM NaCl, 1% NP-40, 4 °C; fractions immunoblotted for HSF1; settings: remark: other sources report otherwise
T1 chain: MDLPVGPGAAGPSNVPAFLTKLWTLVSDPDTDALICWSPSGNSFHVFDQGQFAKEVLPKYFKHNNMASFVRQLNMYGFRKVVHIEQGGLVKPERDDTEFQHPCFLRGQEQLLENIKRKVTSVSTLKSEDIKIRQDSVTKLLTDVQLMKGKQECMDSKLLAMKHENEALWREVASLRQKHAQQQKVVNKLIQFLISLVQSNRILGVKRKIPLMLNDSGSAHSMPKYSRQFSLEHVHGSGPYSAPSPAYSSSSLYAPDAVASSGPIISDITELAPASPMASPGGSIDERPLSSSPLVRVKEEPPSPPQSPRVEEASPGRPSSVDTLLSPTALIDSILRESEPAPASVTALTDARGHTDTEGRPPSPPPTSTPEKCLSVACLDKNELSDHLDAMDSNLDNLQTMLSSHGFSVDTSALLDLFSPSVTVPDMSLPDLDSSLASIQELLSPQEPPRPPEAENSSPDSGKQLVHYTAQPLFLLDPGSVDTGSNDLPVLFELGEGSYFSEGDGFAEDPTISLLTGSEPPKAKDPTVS

[2] = target: T1, FLAG-tagged WT-HSF1 (human), Q00613; experiment: cross-linking; HEK-293 cells transfected for 48 h with WT- or T142A-HSF1 with or without AKT1 or CK2; cells fixed with 1 mM EGS for 30 min at RT, quenched with 10 mM Tris pH 7.5, RIPA lysate, SDS/PAGE, immunoblot for HSF1 trimers; settings: remark: other sources report otherwise

binding against the reference (TFIIB; sites S326): weaker
Molecule: HSF1 (from UniProt Q00613) FLAG-S326A-HSF1

binding against the reference (TFIIB; sites T527): lost
Molecule: HSF1 (from UniProt Q00613) FLAG-T527A-HSF1

stoichiometry N [1]: 3 | stoichiometry N [2]: 3
B1: FLAG-tagged WT-HSF1, Q00613 1-529 (natural protein)
chain: T1 chain
